The results in this text go back to article PMC7684278.

The target of assay [1] is Cas7 of the Desulfovibrio vulgaris type I-C Cascade (Desulfovibrio vulgaris). In words: cryo-EM structure; purified type I-C Cascade with its crRNA, 0.3 mg/mL in 20 mM HEPES-NaOH pH 7.5, 100 mM KCl, 1 mM TCEP; graphene oxide grids; 3.1 A (3.13 A) reconstruction.
The target is the same in assay [2]. Put plainly: native MS; purified type I-C Cascade with its crRNA, about 6 uM, in 100 mM ammonium acetate; positive mode; in-source trapping at -120 and -300 V to release subunits and subcomplexes.
Assay [3] concerns the target Cas8c, large subunit of the Desulfovibrio vulgaris type I-C Cascade (Desulfovibrio vulgaris). Described as above.

What is called stoichiometry N is the number of molecules, sites or subunits per partner or assembly.

With “Cas7 of the Desulfovibrio vulgaris type I-C Cascade (natural protein)”, the stoichiometry N in assay [1] and in assay [2] was 7 throughout.
Consider “non-canonical small subunit (SSU) Cas11c of the Desulfovibrio vulgaris type I-C Cascade (domain or fragment)”, for which the stoichiometry N in assay [3] came out at 2.
